Assay [1] deals with bovine serum albumin (bovine) (UniProt P02769). The assay is described as follows: gel-shift, 2 mg/ml conjugate with 10 mg/ml BSA, 7.5% native PAA gel; Rf of the conjugate alone 0.66.
Assay [2] has as its target hair proteins. Kind of assay: ELISA on coated hair proteins, blocking 0.5% BSA, iMab (OD280 3.60) diluted 100 x, anti-VSV-HRP; background without iMab 0.095.
The target in assay [3] is skin proteins. The assay is described as follows: ELISA on coated skin proteins, blocking 0.5% BSA, iMab (OD280 0.585) diluted 200 x, anti-VSV-HRP; background without iMab 0.484. (In general: An ELISA detects its analyte on a solid surface through an enzyme-linked reagent.)
The target of assay [4] is skin proteins. The assay is described as follows: ELISA on coated skin proteins, blocking Seablock, iMab (OD280 0.585) diluted 200 x, anti-VSV-HRP; background without iMab 0.131.
The target of assay [5] is hair proteins. The assay is described as follows: ELISA on coated hair proteins, blocking 0.5% BSA, iMab (OD280 3.19) diluted 100 x, anti-VSV-HRP; background without iMab 0.095.
Assay [6] concerns the target skin proteins. The assay is described as follows: ELISA on coated skin proteins, blocking 0.5% BSA, iMab (OD280 0.828) diluted 250 x, anti-VSV-HRP; background without iMab 0.484.
Assay [7] has as its target skin proteins. Kind of assay: ELISA on coated skin proteins, blocking Seablock, iMab (OD280 0.828) diluted 250 x, anti-VSV-HRP; background without iMab 0.131.
The target in assay [8] is hair proteins. Kind of assay: ELISA on coated hair proteins, blocking 0.5% BSA, iMab (OD280 1.71) diluted 100 x, anti-VSV-HRP; background without iMab 0.095.
Assay [9] concerns the target skin proteins. The assay is described as follows: ELISA on coated skin proteins, blocking 0.5% BSA, iMab (OD280 0.357) diluted 100 x, anti-VSV-HRP; background without iMab 0.484.
For assay [10], the target named is skin proteins. The assay is described as follows: ELISA on coated skin proteins, blocking Seablock, iMab (OD280 0.357) diluted 100 x, anti-VSV-HRP; background without iMab 0.131.
Assay [11] has as its target hair proteins. The assay is described as follows: ELISA on coated hair proteins, blocking 0.5% BSA, iMab (OD280 2.36) diluted 100 x, anti-VSV-HRP; background without iMab 0.095.
In assay [12] the target is hair proteins. Kind of assay: ELISA on coated hair proteins, blocking 0.5% BSA, iMab (OD280 4.22) diluted 100 x, anti-VSV-HRP; background without iMab 0.095.
In assay [13] the target is skin proteins. The assay is described as follows: ELISA on coated skin proteins, blocking 0.5% BSA, iMab (OD280 0.323) diluted 100 x, anti-VSV-HRP; background without iMab 0.484.
The target of assay [14] is skin proteins. The assay is described as follows: ELISA on coated skin proteins, blocking Seablock, iMab (OD280 0.323) diluted 100 x, anti-VSV-HRP; background without iMab 0.131.
Assay [15] concerns the target skin proteins. Kind of assay: ELISA on coated skin proteins, blocking 0.5% BSA, iMab (OD280 0.399) diluted 100 x, anti-VSV-HRP; background without iMab 0.187.
In assay [16] the target is skin proteins. The assay is described as follows: ELISA on coated skin proteins, blocking Seablock, iMab (OD280 0.399) diluted 100 x, anti-VSV-HRP; background without iMab 0.084.
Assay [17] deals with hair proteins. The assay is described as follows: ELISA on coated hair proteins, blocking 0.5% BSA, iMab (OD280 1.09) diluted 100 x, anti-VSV-HRP; background without iMab 0.095.
The target in assay [18] is skin proteins. Kind of assay: ELISA on coated skin proteins, blocking 0.5% BSA, iMab (OD280 0.711) diluted 200 x, anti-VSV-HRP; background without iMab 0.484.
Assay [19] has as its target skin proteins. Kind of assay: ELISA on coated skin proteins, blocking Seablock, iMab (OD280 0.711) diluted 200 x, anti-VSV-HRP; background without iMab 0.131.
In assay [20] the target is ELK (3% skim milk powder solution). The assay is described as follows: ELISA, control well with ELK only, ~50 ng iMab per well, anti-VSV-HRP; urea purification.
For assay [21], the target named is hair proteins. Kind of assay: ELISA on coated hair proteins, blocking 0.5% BSA, iMab (OD280 2.82) diluted 100 x, anti-VSV-HRP; background without iMab 0.095.
Assay [22] addresses skin proteins. Kind of assay: ELISA on coated skin proteins, blocking 0.5% BSA, iMab (OD280 0.327) diluted 100 x, anti-VSV-HRP; background without iMab 0.484.
The target of assay [23] is skin proteins. The assay is described as follows: ELISA on coated skin proteins, blocking Seablock, iMab (OD280 0.327) diluted 100 x, anti-VSV-HRP; background without iMab 0.131.
Assay [24] addresses chicken lysozyme (chicken), P00698. Kind of assay: ELISA versus lysozyme, iMab dilution 1:10, before pH shock. As to conditions: remark: other sources report otherwise.
Assay [25] shares this target. Kind of assay: ELISA versus lysozyme, iMab dilution 1:100, before pH shock. As to conditions: remark: other sources report otherwise.
Assay [26] has the same target. Kind of assay: ELISA versus lysozyme, iMab dilution 1:1000, before pH shock. As to conditions: remark: other sources report otherwise.
Assay [27] shares this target. The assay is described as follows: ELISA versus lysozyme, iMab dilution 1:10,000, before pH shock. As to conditions: remark: other sources report otherwise.
The target of assay [28] is ELK (3% skim milk powder solution). The assay is described as follows: ELISA, control well with ELK only, ~50 ng iMab per well, anti-VSV-HRP; purification by heat (60 C).
Assay [29] deals with chicken lysozyme (chicken), P00698. Kind of assay: ELISA, well coated with lysozyme (100 ug/ml) and blocked with ELK, ~50 ng iMab per well, anti-VSV-HRP; urea purification. As to conditions: remark: other sources report otherwise.
The target is the same in assay [30]. The assay is described as follows: ELISA versus lysozyme, iMab dilution 1:10, after precipitation with potassium acetate pH 4.8 and redissolving in PBS pH 7.5. As to conditions: remark: other sources report otherwise.
Assay [31] shares this target. The assay is described as follows: ELISA versus lysozyme, iMab dilution 1:100, after precipitation with potassium acetate pH 4.8 and redissolving in PBS pH 7.5. As to conditions: remark: other sources report otherwise.
For assay [32] the target is unchanged. The assay is described as follows: ELISA versus lysozyme, iMab dilution 1:1000, after precipitation with potassium acetate pH 4.8 and redissolving in PBS pH 7.5. As to conditions: remark: other sources report otherwise.
Assay [33] has the same target. The assay is described as follows: ELISA versus lysozyme, iMab dilution 1:10,000, after precipitation with potassium acetate pH 4.8 and redissolving in PBS pH 7.5. As to conditions: remark: other sources report otherwise.
Assay [34] has the same target. Kind of assay: ELISA, well coated with lysozyme (100 ug/ml) and blocked with ELK, ~50 ng iMab per well, anti-VSV-HRP; purification by heat (60 C). As to conditions: remark: other sources report otherwise.

chicken lysozyme (chicken), P00698, sequence (P00698 19-147 limits assumed): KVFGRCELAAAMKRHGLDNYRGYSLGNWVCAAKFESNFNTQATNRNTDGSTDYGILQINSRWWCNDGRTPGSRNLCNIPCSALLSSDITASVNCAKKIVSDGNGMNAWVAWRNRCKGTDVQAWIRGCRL
bovine serum albumin (bovine), sequence (P02769 25-607 limits assumed): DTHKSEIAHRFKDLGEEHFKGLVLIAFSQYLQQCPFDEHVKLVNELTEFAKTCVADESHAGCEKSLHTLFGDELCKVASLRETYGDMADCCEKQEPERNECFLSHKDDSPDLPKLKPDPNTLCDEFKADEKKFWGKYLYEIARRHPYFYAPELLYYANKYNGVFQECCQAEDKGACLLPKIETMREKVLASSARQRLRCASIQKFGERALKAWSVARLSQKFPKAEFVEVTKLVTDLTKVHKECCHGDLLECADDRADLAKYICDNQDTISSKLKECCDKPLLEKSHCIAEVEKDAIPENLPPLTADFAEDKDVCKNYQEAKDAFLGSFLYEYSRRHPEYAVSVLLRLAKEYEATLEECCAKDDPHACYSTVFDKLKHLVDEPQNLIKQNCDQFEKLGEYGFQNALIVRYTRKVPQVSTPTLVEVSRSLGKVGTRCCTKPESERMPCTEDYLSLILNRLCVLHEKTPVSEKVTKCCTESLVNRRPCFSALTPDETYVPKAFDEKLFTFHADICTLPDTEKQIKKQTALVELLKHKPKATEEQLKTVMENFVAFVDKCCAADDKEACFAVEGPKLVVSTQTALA

B1: TRITC labeled iMab142-xx-0002 (designed binder, not shown: small tags and cut ends)
chain: MNVKLVEKGGNFVENDDDLKLTCRAEGYTIGPYSMGWFRQAPNDDSTNVSCINMGGGITYYGDSVKERFDIRRDNASNTVTLSMDDLQPEDSAVYNCAADWWDGFTYGSTWYNPSSYDYRGQGTDVTVSS
modifications: TRITC covalently on primary amines, meaning the N-terminus and Lys side chains. Positions and number are not stated; labelled Lys is written K.
As to B1, the retardation factor (Rf) in assay [1] was determined as 0.66.

B2: iMab143-xx-0029 (designed binder)
chain: MIKVYTDRENYGAVGSQVTLHCSASGYTIGPISFTWRYQPEGDRDAISIFHYNMGDGSIVIHNLDYSDNGSFTCAARFVDALYEPKSCTSRNYAYGNSSQVTLYVFE
For B2, the figures for the OD450 in Elisa with hair proteins [2], with skin proteins [3] and with skin proteins [4] were 0.203 OD450, 1.88 OD450 and 0.212 OD450, respectively.

B3: iMab143-xx-0033 (designed binder)
chain: MIKVYTDRENYGAVGSQVTLHCSASGYTIGPISFTWRYQPEGDRDAISIFHYNMGDGSIVIHNLDYSDNGSFTCAADLHGLGLRRISTYEYGNSSQVTLYVFE
B3: the OD450 in Elisa with hair proteins [5] was 0.442 OD450; in the assay with skin proteins [6], 1.66 OD450; in the assay with skin proteins [7], 0.29 OD450.

B4: iMab143-xx-0034 (designed binder)
chain: MIKVYTDRENYGAVGSQVTLHCSASGYTIGPISFTWRYQPEGDRDAISIFHYNMGDGSIVIHNLDYSDNGSFTCAAYRIRSGGYYCFLTYLMDYGNSSQVTLYVFE
B4: the OD450 in Elisa was 0.736 OD450 with hair proteins [8], 2.23 OD450 in the assay with skin proteins [9] and 0.699 OD450 in the assay with skin proteins [10].

B5: iMab142-xx-0039 (designed binder)
chain: NVKLVEKGGNFVENDDDLKLTCRAEGYTIGPYSMGWFRQAPNDDSTNVSCINMGGGITYYGDSVKERFDIRRDNASNTVTLSMDDLQPEDSAEYNCAADYGRCSWLIRAYNYRGQGTDVTVSS
On to B5, for which, in the assay with hair proteins [11], the OD450 in Elisa was 1.32 OD450.

B6: iMab143-xx-0030 (designed binder)
chain: MIKVYTDRENYGAVGSQVTLHCSASGYTIGPISFTWRYQPEGDRDAISIFHYNMGDGSIVIHNLDYSDNGSFTCAAVFAVVTVATKPDPRFYDYGNSSQVTLYVFEA
As to B6, the values for the OD450 in Elisa with hair proteins [12], in the assay with skin proteins [13] and with skin proteins [14] were 0.262 OD450, 2.02 OD450 and 0.56 OD450, respectively.

B7: iMab142-xx-0032 (designed binder)
chain: MNVKLVEKGGNFVENDDDLKLTCRAEGYTIGPYSMGWFRQAPNDDSTNVSCINMGGGITYYGDSVKERFDIRRDNASNTVTLSMDDLQPEDSAEYNCAATLAPFSIATMYGGLLDTAFDSRGQGTDVTVSS
Turning to B7, the OD450 in Elisa was determined as 0.306 OD450 in the assay with skin proteins [15] and 0.088 OD450 with skin proteins [16].

B8: iMab142-xx-0038 (designed binder)
chain: NVKLVEKGGNFVENDDDLKLTCRAEGYTIGPYSMGWFRQAPNDDSTNVSCINMGGGITYYGDSVKERFDIRRDNASNTVTLSMDDLQPEDSAEYNCATTLAPFGIATMYGPLNPAAFESRGQGTDVTVSS
On to B8, for which the OD450 in Elisa with hair proteins [17] worked out at 2.35 OD450.

B9: iMab143-xx-0035 (designed binder)
chain: MIKVYTDRENYGAVGSQVTLHCSASGYTIGPISFTWRYQPEGDRDAISIFHYNMGDGSIVIHNLDYSDNGSFTCAAGADCSDYGIMYGMDYGNSSQVTLYVFE
As to B9, the results for the OD450 in Elisa with skin proteins [18] and in the assay with skin proteins [19] were 0.824 OD450 and 1.79 OD450, respectively.

B10: iMab122 (designed binder, not shown: small tags and cut ends)
chain: NVKLVEKGGNFVENDDDLKLTCRASGRTFSSRTMGWFRQAPNDDSTNVATIRWNGGSTYYTNYGDSVKERFDIRVDQASNTVTLSMDDLQPEDSAEYNCAGTDIGDGWSGRYDYRGQGTDVTVSS
In [20], B10 gave an Absorbtion (450 nm) (absorbance at 450 nm) of 0.051.

B11: iMab143-xx-0031 (designed binder)
chain: MIKVYTDRENYGAVGSQVTLHCSASGYTIGPISFTWRYQPEGDRDAISIFHYNMGDGSIVIHNLDYSDNGSFTCAATTPFIDYDPNDICPSWYEYDYGNSSQVTLYVFE
B11: the values for the OD450 in Elisa with hair proteins [21], with skin proteins [22] and with skin proteins [23] were 1.05 OD450, 2.62 OD450 and 2.88 OD450, respectively.

B12: iMab111 (designed binder)
chain: NVKLVCKGGNFVENDDDLKLTCRAEGYTIGPYCMGWFRQAPNDDSTNVATINMGGGITYYGDSVKERFDIRRDNASNTVTLSMDDLQPEDSAEYNCAGDSTIYASYYECGHGLSTGGYGYDSHYRCQGTDVTVSS
In the case of B12, the Absorbtion (450 nm) (absorbance at 450 nm) in assay [20] was 0.043.

B13: iMab100 (designed binder, not shown: small tags and cut ends)
chain: NVKLVEKGGNFVENDDDLKLTCRAEGYTIGPYCMGWFRQAPNDDSTNVATINMGGGITYYGDSVKERFDIRRDNASNTVTLSMDDLQPEDSAEYNCAGDSTIYASYYECGHGLSTGGYGYDSHYRGQGTDVTVSS
Take B13: the Signal on Elisa in [24] turned out to be 0.36; in [25], 0.228; in assay [26] it was 0.128; in assay [27], 0.059; in assay [30], 0.39; in [31] it was 0.263. Further, the Signal on Elisa in assay [32] is 0.169; in assay [33], 0.059. Also, the Absorbtion (450 nm) (absorbance at 450 nm) turned out to be 0.04 in assay [20], 0.041 in assay [28], 0.494 in [29] and 0.369 in assay [34].

B14: iMab116 (designed binder, not shown: small tags and cut ends)
chain: NVKLVEKGGNFVENDDDLKLTCRAEGYTIGPYCMGWFRQAPNDDSTNVATINMGGGITYYGDSVKERFDIRRDNASNTVTLSMDDLQPEDSAEYNGAGDSTIYGSYYECGHGLSTGGYGYDSHYRGQGTDVTVSS
B14: the Absorbtion (450 nm) (absorbance at 450 nm) in assay [20] came out at 0.042.
